Substrate in the series: Cc1cn([C@H]2C[C@H](N=[N+]=[N-])[C@@H](COP(=O)(O)NCc3c[nH]c4ccccc34)O2)c(=O)[nH]c1=O
As to the kind of experiment: Hydrolysis activity of human HINT1 at pH 7.2 by continuous fluorescence assay.

For orientation: Km means the substrate concentration at which the rate is half of its maximum.

B1: Adenosine 5'-monophosphoramidase HINT1 (Homo sapiens), P49773 (protein)
chain: MADEIAKAQVARPGGDTIFGKIIRKEIPAKIIFEDDRCLAFHDISPQAPTHFLVIPKKHISQISVAEDDDESLLGHLMIVGKKCAADLGLNKGYRMVVNEGSDGGQSVYHVHLHVLGGRQMHWPPG
Regarding B1, the Km came out at 981 µM.

The values are drawn from ChEMBL document CHEMBL1156111, “Identification of the amino acid-AZT-phosphoramidase by affinity T7 phage display selection” (Bioorg Med Chem Lett, 2009).
